Test results as given in article PMC7617797, “The phosphorylated trimeric SOSS1 complex and RNA polymerase II trigger liquid-liquid phase separation at double-strand breaks”.

B1: 61-mer ssDNA (ssDNA)
DNA: GACGCTGCCGAATTCTACCAGTGCCTTGCTAGGACATCTTTGCCCACCTGCAGGTTCACCC
B2: bubble DNA (dsDNA)
DNA 1: B1 DNA
DNA 2: GGGTGAACCTGCAGGTGGGCGGCTGCTCATCGTAGGTTAGTTGGTAGAATTCGGCAGCGTC
B3: R-loop (mixed)
DNA 1: B1 DNA
DNA 2: B2 DNA 2
RNA: AAAGAUGUCCUAGCAAGGCAC

Assays:
Experiment in all cases: EMSA; EMSA: 25 mM Tris-HCl pH 7.5, 1 mM DTT, 5 mM MgCl2, 100 mM NaCl, 20 min at 37 C; 10 nM substrate; protein 22-167 nM (RPA 5-40 nM); 7.5% native PAGE, 0.5x TBE, 4
RPA = RPA (UniProt P27694;P15927;P35244 1-616;1-270;1-121); conditions: protein: recombinant; copies: 1;1;1; label: 5' Cy3; single strand
hSSB1 = hSSB1 (Homo sapiens, UniProt Q9BQ15 1-211); conditions: protein: recombinant, tags: His6 (2BT)
INTS3 = INTS3 (UniProt Q68E01 1-1043); conditions: protein: recombinant; tags: His6-TEV (438B); label: 5' Cy3; single strand
Chain of INTS3 (Q68E01 whole entry): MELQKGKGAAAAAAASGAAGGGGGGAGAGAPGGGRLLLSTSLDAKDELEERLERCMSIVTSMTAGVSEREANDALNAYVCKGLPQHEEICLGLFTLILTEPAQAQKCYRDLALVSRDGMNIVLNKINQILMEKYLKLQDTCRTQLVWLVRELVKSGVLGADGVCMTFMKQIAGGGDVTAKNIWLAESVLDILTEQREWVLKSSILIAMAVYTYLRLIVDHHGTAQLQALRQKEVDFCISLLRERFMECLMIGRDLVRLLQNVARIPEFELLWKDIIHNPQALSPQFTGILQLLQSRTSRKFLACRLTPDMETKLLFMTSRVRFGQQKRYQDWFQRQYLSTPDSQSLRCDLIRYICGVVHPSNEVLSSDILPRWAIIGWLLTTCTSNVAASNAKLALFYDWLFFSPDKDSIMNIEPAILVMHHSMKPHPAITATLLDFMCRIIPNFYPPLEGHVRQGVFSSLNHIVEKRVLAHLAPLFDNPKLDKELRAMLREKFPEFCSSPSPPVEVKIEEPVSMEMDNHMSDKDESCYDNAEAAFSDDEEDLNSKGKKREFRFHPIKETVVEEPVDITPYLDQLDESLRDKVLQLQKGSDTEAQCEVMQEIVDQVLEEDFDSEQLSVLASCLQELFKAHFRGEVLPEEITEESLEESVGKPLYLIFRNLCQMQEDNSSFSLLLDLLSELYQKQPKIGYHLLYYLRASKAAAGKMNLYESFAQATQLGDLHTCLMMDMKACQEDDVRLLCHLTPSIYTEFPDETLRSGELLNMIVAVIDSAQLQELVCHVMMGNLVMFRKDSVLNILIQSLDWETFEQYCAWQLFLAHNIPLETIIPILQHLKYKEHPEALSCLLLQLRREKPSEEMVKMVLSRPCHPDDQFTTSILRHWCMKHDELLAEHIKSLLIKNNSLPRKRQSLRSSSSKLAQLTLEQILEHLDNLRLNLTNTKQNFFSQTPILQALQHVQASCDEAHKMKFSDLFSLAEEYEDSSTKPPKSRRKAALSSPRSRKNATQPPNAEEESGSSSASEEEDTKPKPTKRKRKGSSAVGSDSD

Chain of hSSB1 (Q9BQ15 whole entry): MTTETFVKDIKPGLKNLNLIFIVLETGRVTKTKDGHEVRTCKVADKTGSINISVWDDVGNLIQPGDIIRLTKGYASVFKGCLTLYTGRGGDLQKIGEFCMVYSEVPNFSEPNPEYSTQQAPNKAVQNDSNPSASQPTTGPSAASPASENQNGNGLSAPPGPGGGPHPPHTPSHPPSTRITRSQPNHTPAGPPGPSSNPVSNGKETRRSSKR
Chain of RPA (P27694 whole entry, chain 1 of 3): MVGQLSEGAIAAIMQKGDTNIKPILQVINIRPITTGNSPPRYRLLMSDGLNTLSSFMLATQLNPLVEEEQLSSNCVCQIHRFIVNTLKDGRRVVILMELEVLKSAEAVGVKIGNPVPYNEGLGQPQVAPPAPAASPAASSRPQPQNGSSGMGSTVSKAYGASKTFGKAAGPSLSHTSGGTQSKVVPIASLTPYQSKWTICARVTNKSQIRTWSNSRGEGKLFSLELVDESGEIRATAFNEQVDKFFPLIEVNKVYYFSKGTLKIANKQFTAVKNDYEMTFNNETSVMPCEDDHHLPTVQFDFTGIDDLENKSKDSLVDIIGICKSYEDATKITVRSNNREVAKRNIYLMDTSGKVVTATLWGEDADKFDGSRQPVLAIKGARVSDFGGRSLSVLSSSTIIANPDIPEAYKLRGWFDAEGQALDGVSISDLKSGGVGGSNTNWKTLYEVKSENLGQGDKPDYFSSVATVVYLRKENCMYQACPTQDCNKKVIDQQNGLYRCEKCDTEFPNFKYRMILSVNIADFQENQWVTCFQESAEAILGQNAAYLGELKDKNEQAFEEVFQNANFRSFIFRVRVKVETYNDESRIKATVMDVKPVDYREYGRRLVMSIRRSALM
Chain of RPA (P15927 whole entry, chain 2 of 3): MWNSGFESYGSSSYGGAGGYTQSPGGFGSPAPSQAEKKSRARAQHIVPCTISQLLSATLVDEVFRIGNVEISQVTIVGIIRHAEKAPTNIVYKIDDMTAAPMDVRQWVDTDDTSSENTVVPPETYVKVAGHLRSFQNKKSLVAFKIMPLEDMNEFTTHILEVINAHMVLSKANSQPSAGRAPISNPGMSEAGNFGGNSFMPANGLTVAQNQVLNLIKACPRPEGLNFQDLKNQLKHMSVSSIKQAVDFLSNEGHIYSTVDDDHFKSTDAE
Chain of RPA (P35244 whole entry, chain 3 of 3): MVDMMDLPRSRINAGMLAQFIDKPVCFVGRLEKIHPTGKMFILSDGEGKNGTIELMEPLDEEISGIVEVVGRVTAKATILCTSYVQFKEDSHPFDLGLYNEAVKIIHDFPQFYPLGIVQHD

Row | Binder | binding result (RPA) | binding result (hSSB1; label: 5' Cy3, single strand) | binding result (INTS3) | binding result (hSSB1; label: 5' Cy3 on strand 1, blunt, 21-nt central bubble) | binding result (hSSB1; label: 5' Cy3 on strand 1, 21-nt RNA paired to strand 1 in a 21-nt bubble, 20-bp flanking duplexes)
1 | GTGCCTTGCTAGGACATCTTT (ssDNA) [21-mer ssDNA (pRMS630)] | binds | no binding |  |  | 
2 | B1 | binds | binds | no binding |  | 
3 | B2 |  |  |  | no binding | 
4 | B3 |  |  |  |  | binds
